Numbering of substitutions follows the chain as printed.
T1: CCL23 (human, UniProt P55773 22-120)
T1 chain: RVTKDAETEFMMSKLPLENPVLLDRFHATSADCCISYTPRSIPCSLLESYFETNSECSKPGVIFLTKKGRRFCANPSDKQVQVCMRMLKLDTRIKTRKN

T2: CCL16 (human, UniProt O15467 24-120)
T2 chain: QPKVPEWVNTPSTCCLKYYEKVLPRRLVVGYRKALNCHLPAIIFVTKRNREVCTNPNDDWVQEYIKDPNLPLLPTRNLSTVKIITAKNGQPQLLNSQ

T3: CCL1 (human, UniProt P22362 24-96)
T3 chain: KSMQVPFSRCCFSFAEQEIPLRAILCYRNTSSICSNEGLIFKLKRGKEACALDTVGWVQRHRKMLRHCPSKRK

T4: CCL15 (human, UniProt Q16663 22-113)
T4 chain: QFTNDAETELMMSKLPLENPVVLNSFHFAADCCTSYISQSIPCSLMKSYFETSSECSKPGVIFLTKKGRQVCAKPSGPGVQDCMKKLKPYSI

B1: C-terminally tagged P672 (P672_RHIPU), glycosylated (natural protein)
chain: ETGVCEVSEQEGVGEDNATEDEDYEDFFKPVTCYFANSTVGPLRPPNCTVVCTNNTAWWNDTKSDGGHCYSEYRPEKRTHSREIYNCTIGVCGNGTCIANHTYADCW
modifications: glycosylated
B2: CCL3 (ligand)
chain: SLAADTPTACCFSYTSRQIPQNFIADYFETSSQCSKPGVIFLTKRSRQVCADPSEEWVQKYVSDLELSA
B3: N-terminally tagged P672 (P672_RHIPU), glycosylated (natural protein)
chain: VCEVSEQEGVGEDNATEDEDYEDFFKPVTCYFANSTVGPLRPPNCTVVCTNNTAWWNDTKSDGGHCYSEYRPEKRTHSREIYNCTIGVCGNGTCIANHTYADCW
modifications: N-glycosylated (six N-glycosylated residues identified by mass spectrometry, Asn-34 among them; marked in Figure 2A)
B4: CCL4L1 (ligand)
chain: APMGSDPPTACCFSYTARKLPRNFVVDYYETSSLCSQPAVVFQTKRGKQVCADPSESWVQEYVYDLELN
B5: CCL4 (ligand)
chain: B4 chain with G47S
B6: CCL18 (ligand)
chain: AQVGTNKELCCLVYTSWQIPQKFIVDYSETSPQCPKPGVILLTKRGRQICADPNKKWVQKYISDLKLNA
B7: CCL3L1 (ligand)
chain: APLAADTPTACCFSYTSRQIPQNFIADYFETSSQCSKPSVIFLTKRGRQVCADPSEEWVQKYVSDLELSA
B8: CCL14 (ligand)
chain: TKTESSSRGPYHPSECCFTYTTYKIPRQRIMDYYETNSQCSKPGIVFITKRGHSVCTNPSDKWVQDYIKDMKEN
B9: CCL8 (human chemokine panel) (ligand)
chain: QPDSVSIPITCCFNVINRKIPIQRLESYTRITNIQCPKEAVIFKTKRGKEVCADPKERWVRDSMKHLDQIFQNLKP

Key:
CCL3L1 = target: B7; assay: BLI
CCL23 = target: T1, CCL23; assay: BLI
[1] = target: B9; assay: BLI
CCL18 = target: B6; assay: BLI
CCL3 = target: B2; assay: BLI
[2] = target: evasin 1 (EVA1_RHISA), C-terminally tagged (Rhipicephalus sanguineus, UniProt P0C8E7 21-114, K92N); assay: BLI
CCL13 = CCL13 (human, UniProt Q99616 17-98); assay: BLI
CCL13, sequence (Q99616 17-98): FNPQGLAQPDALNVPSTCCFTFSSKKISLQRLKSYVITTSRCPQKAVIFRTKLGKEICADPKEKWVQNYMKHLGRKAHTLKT

CCL16 = target: T2, CCL16; assay: BLI
CCL11 = CCL11 (human, UniProt P51671 24-97); assay: BLI
CCL11, sequence (P51671 24-97): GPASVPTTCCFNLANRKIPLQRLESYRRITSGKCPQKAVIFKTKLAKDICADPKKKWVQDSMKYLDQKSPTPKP

CCL1 = target: T3, CCL1; assay: BLI
CCL15 = target: T4, CCL15; assay: BLI
CCL14 = target: B8; assay: BLI
CCL2 = CCL2 (human, UniProt P13500 24-99); assay: BLI
CCL7 = CCL7 (human, UniProt P80098 24-99); assay: BLI
CCL7, sequence (P80098 24-99): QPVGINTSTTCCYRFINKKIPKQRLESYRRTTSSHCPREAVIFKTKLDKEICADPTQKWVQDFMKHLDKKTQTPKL

[3] = target: P672(1_44)-EVA1(29_94) hybrid evasin (Rhipicephalus pulchellus | …, UniProt L7MC74;P0C8E7, K92N); assay: BLI
[4] = target: other, more extended hybrid molecules (P672_EVA1 hybrids); assay: BLI; P672(1_92):EVA1(74_94)
[5] = target: other, more extended hybrid molecules (P672_EVA1 hybrids); assay: BLI; P672(1_66):EVA1(47_94)

B1
Kd (CCL3L1): 5.7 nM | Kd (CCL23): 9.7 nM | Kd [1]: 16.4 nM | Kd (CCL18): 0.9 nM | Kd (CCL3): 13 nM

B2
Kd [2]: 7.3 nM

B3
Kd (CCL13): 7.6 nM | Kd (CCL3L1): 1.63 nM | Kd (CCL16): 9.6 nM | Kd (CCL11): 2.29 nM | Kd (CCL1): 11 nM | Kd (CCL15): 31.5 nM | Kd (CCL23): 4.56 nM | Kd (CCL14): 5.5 nM | Kd (CCL2): 21 nM | Kd [1]: 8.51 nM | Kd (CCL18): 1.62 nM | Kd (CCL7): 18.6 nM | Kd (CCL3): 0.954 nM

B4
Kd [2]: 77.9 nM

B5
Kd [2]: 233 nM

B6
Kd [2]: 2.02 nM | Kd [3]: 6.45 nM | Kd [4]: 9.75 nM | Kd [5]: 3.69 nM

B7
Kd [2]: 22.4 nM

B8
Kd [2]: 108 nM

B9
Kd [3]: 216 nM | Kd [4]: 397 nM | Kd [5]: 277 nM

— paper PMC5912465 (2018)
